Assay results from patent US20150218281A1 (Ablynx, published 2015).
Blank lines part the entries; values can stand above or below the binder they belong to.

B4: recombinant human OX40L (extracellular domain, R&D Systems) (ligand)
chain: QVSHRYPRIQSIKVQFTEYKKEKGFILTSQKEDEIMKVQNNSVIINCDGFYLISLKGYFSQEVNISLHYQKDEEPLFQLKKVRSVNSLMVASLTYKDKVYLNVTTDNTSLDDFHVNGGELILIHQNPGEFCVL
notes: also called hOX40L; rec. hOX40L

Columns and labels:
[1] = biological target: T1, biotinylated hOX40L (R&D Systems, biotinylated in house) (human, UniProt P23510 51-183, biotinylated with Sulfo-NHS-LC-Biotin, sites not stated); experiment: hOX40L/hOX40 AlphaScreen, assay 3, heated at Tm+10 C
T1 construct: same bought protein as m10, biotinylated; also called biotinylated OX40L
T1 sequence: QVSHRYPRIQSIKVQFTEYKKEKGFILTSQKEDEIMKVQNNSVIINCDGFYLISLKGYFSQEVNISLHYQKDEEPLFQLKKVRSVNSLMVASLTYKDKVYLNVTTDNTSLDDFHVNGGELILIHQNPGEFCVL
Description: (§1) Next, streptavidin donor beads were added and incubated for an additional 1 hour. Fluorescence was measured by reading plates on the EnVision Multilabel Plate Reader using an excitation wavelength of 680 nm and an emission wavelength of 520 nm.
(§2) In the TSA assay, Nanobodies were diluted to a concentration of 0.2 mg/ml and melting temperature (Tm) was determined at different pH by stepwise increase in temperature in presence of Sypro Orange, a dye that binds to […] residues that become exposed upon unfolding of the protein, using the Lightcycler (Roche) for detection. […] In SEC analysis, the Nanobodies were analyzed on a Phenomenex matrix to allow detection of multimers, aggregates or ‘stickyness’.

[2] = biological target: T1, biotinylated hOX40L (R&D Systems, …); experiment: hOX40L/hOX40 AlphaScreen, assay 2, native; assay 2, native (not Tm + 10° C.)
[3] = biological target: B4; experiment: cell-based or functional assay
[4] = biological target: T1, biotinylated hOX40L (R&D Systems, …); experiment: hOX40L/hOX40 AlphaScreen, assay 3, native
Description: as §1, §2

[5] = biological target: T1, biotinylated hOX40L (R&D Systems, …); experiment: hOX40L/hOX40 AlphaScreen, assay 2, heated at Tm+10 C
Description: as §1, §2

[6] = biological target: T1, biotinylated hOX40L (R&D Systems, …); experiment: hOX40L/hOX40 AlphaScreen
OX40L01E07 = biological target: T2, OX40L01E07; experiment: competition ELISA: fixed concentration of OX40L01E07 pre-incubated with a concentration series of soluble hOX40L, then added to biotinylated hOX40L captured on neutravidin; bound Nanobody detected with rabbit anti-VHH antiserum and HRP goat anti-rabbit IgG, OD450nm
T2 construct: monovalent Nanobody from E. coli; not shown: C-terminal c-myc and His6 tag
T2 sequence (VHH, as listed by the source): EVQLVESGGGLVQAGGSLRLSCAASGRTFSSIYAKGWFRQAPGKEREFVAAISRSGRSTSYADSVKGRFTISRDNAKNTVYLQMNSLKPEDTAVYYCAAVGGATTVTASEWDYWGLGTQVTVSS
Description: The binding of OX40L blocking Nanobodies to other TNF family members was tested in a competition ELISA.
Detection was done using sTMB (SDT Reagents, Baesweiler, Germany), the reaction was stopped with 1M HCl and absorbance was determined at 450 nm.

B1: OX40L056 (VHH, not shown: small tags and cut ends)
VHH: DVQLVESGGGLVQPGGSLRLSCAASRSIGRLDRMGWYRHRPGKPRELVATITGGSSINYADSVKGRFTISRDNSKNTVYLQMNSLRPEDTAVYYCNFNKYVTSRDTWGQGTLVTVSS
IC50 [1]: 1.12 nM
IC50 [2]: 1.12 nM
IC50, T cell assay with rec. hOX40L [3]: 135 nM
IC50 [4]: 1.12 nM
IC50 [5]: 1.12 nM

Binder: B4
IC50 (read off the curve) (OX40L01E07): ~0.8 nM

Next, values leading:

fold decrease in potency compared with the parental Nanobody OX40L15B07 [6]: ~2 fold
IC50 [1]: 0.14 nM
IC50 [4]: 0.14 nM
B2: OX40L082 (VHH, not shown: small tags and cut ends)
VHH: EVQLVESGGGLVQPGGSLRLSCAASRSIGRLDRMGWYRHRPGEPRELVATITGGSSINYGDSVKGRFTISIDNSKNTVYLQMNSLRPEDTAVYYCNFNKYVTSRDTWGQGTLVTVSS

fold drop in potency compared with the parental Nanobody OX40L15B07 [6]: ~6 fold
B3: OX40L083 (VHH, not shown: small tags and cut ends)
VHH: EVQLVESGGGLVQPGGSLRLSCAASRSIGRLDRMGWYRHRPGKPRELVATITGGSSINYGDSVKGRFTISIDNSKNTVYLQMNSLRPEDTAVYYCNFNKYVTSRDTWGQGTLVTVSS
